Laboratory results as given in US20120238493A1 (INDIANA UNIVERSITY RESEARCH AND TECHNOLOGY, published 2012).
*1 amine or outer side, *2 acyl side, *3 side chain or, on linkers, in order; H or OH if unused. Where no end group is shown, it is not given here. Side-chain parts run from the residue outwards. [ ]: non-standard residue; d: D form. The star is where a group is joined. γGlu = O=C(O)[C@H](CCC(=O)[*:2])N[*:1]; Palmitoyl = CCCCCCCCCCCCCCCC(=O)*; Myristoyl = CCCCCCCCCCCCCC(=O)*; 40K‑ME = not defined here; 40K‑TE = not defined here; Ac3c = NC1(C(=O)O)CC1; Aib = CC(C)(N)C(=O)O

T1: GIP receptor (UniProt P48546 22-466, limits assumed)
T1 sequence (looked up): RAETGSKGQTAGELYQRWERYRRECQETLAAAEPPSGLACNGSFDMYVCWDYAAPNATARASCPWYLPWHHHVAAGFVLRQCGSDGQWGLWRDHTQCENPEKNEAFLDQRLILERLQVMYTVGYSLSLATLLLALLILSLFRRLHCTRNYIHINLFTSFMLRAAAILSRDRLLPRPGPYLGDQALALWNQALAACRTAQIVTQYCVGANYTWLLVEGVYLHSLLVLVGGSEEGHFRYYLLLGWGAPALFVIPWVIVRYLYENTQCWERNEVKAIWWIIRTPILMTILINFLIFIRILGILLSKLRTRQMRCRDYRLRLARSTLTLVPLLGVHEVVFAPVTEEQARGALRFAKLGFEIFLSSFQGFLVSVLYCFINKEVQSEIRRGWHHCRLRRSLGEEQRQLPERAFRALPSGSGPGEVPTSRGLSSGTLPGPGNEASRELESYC

B1: peptide of SEQ ID NO: 58 (peptide)
peptide: Y[Aib]QGTFTSDYSIYLDKEAA[Aib]KFVNWLLAGGPSSGAPPPSC-NH2
modifications: lactam (positions not given here); also: lactam between underlined residues, underlining not shown
B2: peptide of SEQ ID NO: 48 (peptide)
peptide: H[dS]QGTFTSDYSIYLDKQAA[Aib]EFVNWLLAGGPSSGAPPPSC-NH2
modifications: N-terminus assumed
SMILES: CC[C@H](C)[C@H](NC(=O)[C@H](CO)NC(=O)[C@H](Cc1ccc(O)cc1)NC(=O)[C@H](CC(=O)O)NC(=O)[C@H](CO)NC(=O)[C@@H](NC(=O)[C@H](Cc1ccccc1)NC(=O)[C@@H](NC(=O)CNC(=O)[C@H](CCC(N)=O)NC(=O)[C@@H](CO)NC(=O)[C@@H](N)Cc1c[nH]cn1)[C@@H](C)O)[C@@H](C)O)C(=O)N[C@@H](Cc1ccc(O)cc1)C(=O)N[C@@H](CC(C)C)C(=O)N[C@@H](CC(=O)O)C(=O)N[C@@H](CCCCN)C(=O)N[C@@H](CCC(N)=O)C(=O)N[C@@H](C)C(=O)N[C@@H](C)C(=O)NC(C)(C)C(=O)N[C@@H](CCC(=O)O)C(=O)N[C@@H](Cc1ccccc1)C(=O)N[C@H](C(=O)N[C@@H](CC(N)=O)C(=O)N[C@@H](Cc1c[nH]c2ccccc12)C(=O)N[C@@H](CC(C)C)C(=O)N[C@@H](CC(C)C)C(=O)N[C@@H](C)C(=O)NCC(=O)NCC(=O)N1CCC[C@H]1C(=O)N[C@@H](CO)C(=O)N[C@@H](CO)C(=O)NCC(=O)N[C@@H](C)C(=O)N1CCC[C@H]1C(=O)N1CCC[C@H]1C(=O)N1CCC[C@H]1C(=O)N[C@@H](CO)C(=O)N[C@@H](CS)C(N)=O)C(C)C
B3: peptide of SEQ ID NO: 56 (peptide)
peptide: Y[Aib]QGTFTSDYSIYLDEQAAKEFV[Aib]WLLAGGPSSGAPPPSC-NH2
modifications: lactam (positions not given here); also: lactam between underlined residues, underlining not shown
B4: peptide of SEQ ID NO: 59 (peptide)
peptide: Y[Aib]QGTFTSDYSIYLDKEAA[Aib]KFVNWLLAGGPSSGAPPPSC(40K‑TE)-NH2
modifications: lactam (positions not given here); reading uncertain; also: lactam between underlined residues, underlining not shown
B5: peptide of SEQ ID NO: 50 (peptide)
peptide: Y[dS]QGTFTSDYSIYLDKQAA[Aib]EFVNWLLAGGPSSGAPPPSC-NH2
modifications: N-terminus assumed
SMILES: CC[C@H](C)[C@H](NC(=O)[C@H](CO)NC(=O)[C@H](Cc1ccc(O)cc1)NC(=O)[C@H](CC(=O)O)NC(=O)[C@H](CO)NC(=O)[C@@H](NC(=O)[C@H](Cc1ccccc1)NC(=O)[C@@H](NC(=O)CNC(=O)[C@H](CCC(N)=O)NC(=O)[C@@H](CO)NC(=O)[C@@H](N)Cc1ccc(O)cc1)[C@@H](C)O)[C@@H](C)O)C(=O)N[C@@H](Cc1ccc(O)cc1)C(=O)N[C@@H](CC(C)C)C(=O)N[C@@H](CC(=O)O)C(=O)N[C@@H](CCCCN)C(=O)N[C@@H](CCC(N)=O)C(=O)N[C@@H](C)C(=O)N[C@@H](C)C(=O)NC(C)(C)C(=O)N[C@@H](CCC(=O)O)C(=O)N[C@@H](Cc1ccccc1)C(=O)N[C@H](C(=O)N[C@@H](CC(N)=O)C(=O)N[C@@H](Cc1c[nH]c2ccccc12)C(=O)N[C@@H](CC(C)C)C(=O)N[C@@H](CC(C)C)C(=O)N[C@@H](C)C(=O)NCC(=O)NCC(=O)N1CCC[C@H]1C(=O)N[C@@H](CO)C(=O)N[C@@H](CO)C(=O)NCC(=O)N[C@@H](C)C(=O)N1CCC[C@H]1C(=O)N1CCC[C@H]1C(=O)N1CCC[C@H]1C(=O)N[C@@H](CO)C(=O)N[C@@H](CS)C(N)=O)C(C)C
B6: peptide of SEQ ID NO: 54 (peptide)
peptide: Y[Aib]QGTFTSDYSIYLDKQAA[Aib]EFV[Aib]WLLAGGPSSGAPPPSC-NH2
modifications: N-terminus assumed
SMILES: CC[C@H](C)[C@H](NC(=O)[C@H](CO)NC(=O)[C@H](Cc1ccc(O)cc1)NC(=O)[C@H](CC(=O)O)NC(=O)[C@H](CO)NC(=O)[C@@H](NC(=O)[C@H](Cc1ccccc1)NC(=O)[C@@H](NC(=O)CNC(=O)[C@H](CCC(N)=O)NC(=O)C(C)(C)NC(=O)[C@@H](N)Cc1ccc(O)cc1)[C@@H](C)O)[C@@H](C)O)C(=O)N[C@@H](Cc1ccc(O)cc1)C(=O)N[C@@H](CC(C)C)C(=O)N[C@@H](CC(=O)O)C(=O)N[C@@H](CCCCN)C(=O)N[C@@H](CCC(N)=O)C(=O)N[C@@H](C)C(=O)N[C@@H](C)C(=O)NC(C)(C)C(=O)N[C@@H](CCC(=O)O)C(=O)N[C@@H](Cc1ccccc1)C(=O)N[C@H](C(=O)NC(C)(C)C(=O)N[C@@H](Cc1c[nH]c2ccccc12)C(=O)N[C@@H](CC(C)C)C(=O)N[C@@H](CC(C)C)C(=O)N[C@@H](C)C(=O)NCC(=O)NCC(=O)N1CCC[C@H]1C(=O)N[C@@H](CO)C(=O)N[C@@H](CO)C(=O)NCC(=O)N[C@@H](C)C(=O)N1CCC[C@H]1C(=O)N1CCC[C@H]1C(=O)N1CCC[C@H]1C(=O)N[C@@H](CO)C(=O)N[C@@H](CS)C(N)=O)C(C)C
B7: peptide of SEQ ID NO: 52 (peptide)
peptide: H[Aib]QGTFTSDYSIYLDKQAA[Aib]EFVNWLLAGGPSSGAPPPSC-NH2
modifications: N-terminus assumed
SMILES: CC[C@H](C)[C@H](NC(=O)[C@H](CO)NC(=O)[C@H](Cc1ccc(O)cc1)NC(=O)[C@H](CC(=O)O)NC(=O)[C@H](CO)NC(=O)[C@@H](NC(=O)[C@H](Cc1ccccc1)NC(=O)[C@@H](NC(=O)CNC(=O)[C@H](CCC(N)=O)NC(=O)C(C)(C)NC(=O)[C@@H](N)Cc1c[nH]cn1)[C@@H](C)O)[C@@H](C)O)C(=O)N[C@@H](Cc1ccc(O)cc1)C(=O)N[C@@H](CC(C)C)C(=O)N[C@@H](CC(=O)O)C(=O)N[C@@H](CCCCN)C(=O)N[C@@H](CCC(N)=O)C(=O)N[C@@H](C)C(=O)N[C@@H](C)C(=O)NC(C)(C)C(=O)N[C@@H](CCC(=O)O)C(=O)N[C@@H](Cc1ccccc1)C(=O)N[C@H](C(=O)N[C@@H](CC(N)=O)C(=O)N[C@@H](Cc1c[nH]c2ccccc12)C(=O)N[C@@H](CC(C)C)C(=O)N[C@@H](CC(C)C)C(=O)N[C@@H](C)C(=O)NCC(=O)NCC(=O)N1CCC[C@H]1C(=O)N[C@@H](CO)C(=O)N[C@@H](CO)C(=O)NCC(=O)N[C@@H](C)C(=O)N1CCC[C@H]1C(=O)N1CCC[C@H]1C(=O)N1CCC[C@H]1C(=O)N[C@@H](CO)C(=O)N[C@@H](CS)C(N)=O)C(C)C

Molecular target: glucagon receptor (UniProt P47871 26-477, limits assumed)
Experiment: cell-based or functional assay

Sequence of glucagon receptor (P47871 26-477 limits assumed): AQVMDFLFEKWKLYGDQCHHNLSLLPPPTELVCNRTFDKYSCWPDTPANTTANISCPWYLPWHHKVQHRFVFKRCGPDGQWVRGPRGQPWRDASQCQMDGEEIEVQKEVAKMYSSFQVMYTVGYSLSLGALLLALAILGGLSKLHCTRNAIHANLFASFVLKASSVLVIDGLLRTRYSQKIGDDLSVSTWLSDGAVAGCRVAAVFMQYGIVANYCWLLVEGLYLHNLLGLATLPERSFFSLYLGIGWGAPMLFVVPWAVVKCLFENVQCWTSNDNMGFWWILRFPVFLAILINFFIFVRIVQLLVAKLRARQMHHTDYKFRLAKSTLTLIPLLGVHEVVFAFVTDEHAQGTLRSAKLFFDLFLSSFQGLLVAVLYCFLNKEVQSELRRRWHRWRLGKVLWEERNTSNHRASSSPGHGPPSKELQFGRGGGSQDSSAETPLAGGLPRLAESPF

Binder | EC50 (cAMP reporter) [nM]
Y[Aib]QGTFTSDYSIYLDKQAA[Aib]EFVC(40K‑ME)WLLAGGPSSGAPPPSK(Palmitoyl)-NH2 (not fully specified; reading uncertain) [peptide of SEQ ID NO: 70] | 0.018
B1 | 0.063
B2 | 0.026
Y[Aib]QGTFTSDYSIYLDKQAA[Ac3c]EFVNWLLAGGPSSGAPPPSC-NH2 [peptide of SEQ ID NO: 60] | 0.047
Y[Aib]EGTFISDYSIYLDKQAA[Aib]EFVNWLLAGGPSSGAPPPSC(40K‑TE)-NH2 (not fully specified; reading uncertain) [peptide of SEQ ID NO: 72] | 1.68
B3 | 1.27
B4 | 0.432
B5 | 0.041
H[Aib]QGTFTSDYSIYLDKQAA[Aib]EFVNWLLAGGPSSGAPPPSC(40K‑TE)-NH2 (reading uncertain) [peptide of SEQ ID NO: 53] | 3.51
B6 | 0.566
B7 | 0.2
Y[Aib]QGTFTSDK([γGlu-Palmitoyl])SIYLDKQAA[Aib]EFVNWLLAGGPSSGAPPPSC(40K‑ME)-NH2 (reading uncertain) [peptide of SEQ ID NO: 69] | 0.055
Y[dS]QGTFTSDYSIYLDKQAA[Aib]EFVNWLLAGGPSSGAPPPSC(40K‑TE)-NH2 (reading uncertain) [peptide of SEQ ID NO: 51] | 0.255
Y[Aib]QGTFTSDK([γGlu-Myristoyl])SIYLDKQAA[Aib]EFVNWLLAGGPSSGAPPPSC(40K‑ME)-NH2 (reading uncertain) [peptide of SEQ ID NO: 68] | 50.1

Molecular target: GLP-1 receptor (UniProt P43220 24-463, limits assumed)
Experiment: cell-based or functional assay

Binder | EC50 (cAMP reporter) [nM]
Y[Aib]QGTFTSDYSIYLDKQAA[Aib]EFVC(40K‑ME)WLLAGGPSSGAPPPSK(Palmitoyl)-NH2 (not fully specified; reading uncertain) [peptide of SEQ ID NO: 70] | 0.007
Y[Aib]QGTFTSDYSIYLDKQAA[Aib]EFVC(40K‑TE PEG)WLLAGGPSSGAPPPSK(C14)-NH2 [peptide of SEQ ID NO: 174] | 0.01
B1 | 0.014
B2 | 0.01
Y[Aib]QGTFTSDYSIYLDKQAA[Ac3c]EFVNWLLAGGPSSGAPPPSC-NH2 [peptide of SEQ ID NO: 60] | 0.0028
Y[Aib]EGTFISDYSIYLDKQAA[Aib]EFVNWLLAGGPSSGAPPPSC(40K‑TE)-NH2 (not fully specified; reading uncertain) [peptide of SEQ ID NO: 72] | 2.69
B3 | 0.096
B4 | 0.063
B5 | 0.108
H[Aib]QGTFTSDYSIYLDKQAA[Aib]EFVNWLLAGGPSSGAPPPSC(40K‑TE)-NH2 (reading uncertain) [peptide of SEQ ID NO: 53] | 0.027
B6 | 0.091
B7 | 0.005
Y[Aib]QGTFTSDK([γGlu-Palmitoyl])SIYLDKQAA[Aib]EFVNWLLAGGPSSGAPPPSC(40K‑ME)-NH2 (reading uncertain) [peptide of SEQ ID NO: 69] | 0.02
Y[dS]QGTFTSDYSIYLDKQAA[Aib]EFVNWLLAGGPSSGAPPPSC(40K‑TE)-NH2 (reading uncertain) [peptide of SEQ ID NO: 51] | 0.572
Y[Aib]QGTFTSDK([γGlu-Myristoyl])SIYLDKQAA[Aib]EFVNWLLAGGPSSGAPPPSC(40K‑ME)-NH2 (reading uncertain) [peptide of SEQ ID NO: 68] | 0.612

Molecular target: T1, GIP receptor
Experiment: cell-based or functional assay

Binder | EC50 (cAMP reporter) [nM]
Y[Aib]QGTFTSDYSIYLDKQAA[Aib]EFVC(40K‑ME)WLLAGGPSSGAPPPSK(Palmitoyl)-NH2 (not fully specified; reading uncertain) [peptide of SEQ ID NO: 70] | 0.014
Y[Aib]QGTFTSDYSIYLDKQAA[Aib]EFVC(40K‑TE PEG)WLLAGGPSSGAPPPSK(C14)-NH2 [peptide of SEQ ID NO: 174] | 0.019
B1 | 0.005
B2 | 0.433
Y[Aib]EGTFISDYSIYLDKQAA[Aib]EFVNWLLAGGPSSGAPPPSC(40K‑TE)-NH2 (not fully specified; reading uncertain) [peptide of SEQ ID NO: 72] | 0.035
B3 | 1.98
B4 | 0.122
B5 | 0.072
H[Aib]QGTFTSDYSIYLDKQAA[Aib]EFVNWLLAGGPSSGAPPPSC(40K‑TE)-NH2 (reading uncertain) [peptide of SEQ ID NO: 53] | 0.232
B6 | 0.467
B7 | 0.006
Y[Aib]QGTFTSDK([γGlu-Palmitoyl])SIYLDKQAA[Aib]EFVNWLLAGGPSSGAPPPSC(40K‑ME)-NH2 (reading uncertain) [peptide of SEQ ID NO: 69] | 0.015
Y[dS]QGTFTSDYSIYLDKQAA[Aib]EFVNWLLAGGPSSGAPPPSC(40K‑TE)-NH2 (reading uncertain) [peptide of SEQ ID NO: 51] | 0.433
Y[Aib]QGTFTSDK([γGlu-Myristoyl])SIYLDKQAA[Aib]EFVNWLLAGGPSSGAPPPSC(40K‑ME)-NH2 (reading uncertain) [peptide of SEQ ID NO: 68] | 0.862
